Source: the DeepSol protein solubility set

Assay: soluble on expression in E. coli; label from the status in PepcDB or PDB records

Sequence	soluble on expression in E. coli
MGSDKIHHHHHHMSVLKATNSIEQRLQIQRLQAPTRVVTSTAGGDVVRGLTQTPKTLPPCYFYDDRGSELFERICELPEYYVTRTETAILQRFAGEIARITGACELVELGSGNSTKTRILLDAYQQLDYPLRYLPIDVCAGILESSAKQLLQDYPSLEVYALAGTYELALAQLTPKKLSSRMICFIGSTLGNLNLQECDVFLSQIRATLNVGEYFLLGVDLQKPKEILEPAYDDSQGVTAEFNLNMLEHLNRSFEGNFDTTQFKHWAFYNESEQRIEMHLKSERSQTVQLKSLNLTVNLAQGETILTEISRKFNLESIQQQLAAKGLIPVQTWTDVNQWFGLLLCQVQG	not soluble
GIDIELQMLGERLLEGKIGSIVAIEPSTGEILCMVSAPTFDPRLMVGRQRGKNHLELARDSWKPLLNRSIMGQFPPGSTFKTTQALTFLQEGIITPQTAYSCYHGFVYAGLRVGCHSHGSPLPLVPAIATSCNGYFCWGLFHMIGAKKKYGSVQTAMNTWRDYMVSMGFGYPLGVDLPGEKRGMIPNAAYYDKNYRGSWNGLTIISISIGQGEVTATPLQIANLGATIANRGYYITPHVVKEVEDEPLDTLYTTKRYTKVSREHYQTVVEGMRSAVLGGTCRNANIPGIEVCGKTGTAQNRGKDHSAFMGFAPMNDPKIAVVVYVENGGWGATYGVPIGALIMEKYLKGELSPESEAKAAEIQNRRIDYGIHER	not soluble
MATIGLDRLYYAKITENENGEETYATPVPLAKAITAELSVELAEATLYADDGAAEVVKEFQSGTLTLGVADIGVDAAEVLTGATLDDNKVLISTSEDGGAPVAIGFRAKKANGKYRYFWLYRVKFGIPATNLQTKGDSITFSTPTIEGTVMRRNKPDGLEHHHHHH	soluble
MAHHHHHHMGTLEAQTQGPGSMQYPPRLGFGTWQAPPEAVQTAVETALMTGYRHIDCAYVYQNEEAIGRAFGKIFKDASSGIKREDVWITSKLWNYNHRPELVREQCKKTMSDLQVDYLDLFLVHWPLAFVRNDVGDLFPKDAEGRAMLEKVPLADTWRAMEQLVEEGLVKHIGVSNYTVPLLADLLNYAKIKPLVNQIEIHPWHPNDATVKFCLDNGIGVTAYSPMGGSYADPRDPSGTQKNVILECKTLKAIADAKGTSPHCVALAWHVKKWNTSMYSVIPKSQTPARIEANFKCTEVQLSDDDMDAINNIHLNKRIRFCDPAIFWKVPLFD	soluble
MGSDKIHHHHHHMGNIEIKRVIAHHMDLGATKPTFLNNVIDISQEEMQDVIVFFGNHVKKALTTAQLKTCVFKNEDDEVYKYCKELAEDQSDDKLFVRVTRRMTIKLFYNMKRTSSTSSATLIFLHYFNVDSGKDYLGILKMDPNDGIELDPERVVFKVRKHMLPNVKERLHKSAFIKLDEKLFAEESHLYVLDKQQKMDGISKFFLEAFLNAKEVNSDKKTTAFFNTAVMEVARSEKVPNMFAIAKKVSDSMTEGKYIKVDSMLEEVLHDFIPGEEDRFDFIERVKQQMKKKNEDVQFEFTVEKEKEAISFLHNDDKSIQLRFKSILLGTDVFYDEEEDEDGNKFIVLKIREKNIESNFEFKK	not soluble
VDNDKLKDGYVNFINILNLDDMYVKKMREWRNQDFVRQRMFNREIITEEEHARFIEHLKDNREKNYYVCFLGNKPFGVLYYEFFRKNNNLEFGYYLTEQEFINSGLGIVMEYSLLNHAFYDLKVNKVFCRTLSSNEKVVSLHMNFGFETEGILRQHVRINDGYEDITIQAINERAWAQNRPKIEKYLRVIVDVDKIGPITGRS	soluble
MSKRKAEEAPAPKLASIFTKKVKPAEEDNNQKSWKFVCWNVAGLRACVKKSDFKEVLAEEPDLVFLGETKCKEWPPEMEETFKNYTKTLVVSTEKNGGYAGVGLLSKCAPMKVHKGIGDPEFDTAGRLIIAEFSKFYFIGAYVPNSGAKLVNLEKRGRWEKLLTEKMKEMDEKKPVIYGGDLNVAHNEIDLKNPESNRNKTAGFTDQERGWFSEMLELGFTDTFRAMHPDEKKYSFWSYLANSRQKDVGWRLDYYVVSNRIMNKVKRSDIMSSVMGSDHAPVVMQIDF	soluble
MAHHHHHHMNFIKAEEKDKCAEEQGVKLFYLKSCKEKEYELHMDVCQAIVEDCPLLEVYVVSRGDGSSESGAFELYDNGQLIKKFTNCNVSTVTSFIRKYAQKGGSSPMEATQSGELNSTGKTDTVKKIEHLIGSNKIILFMKGSKTFPQCKFSNAVVFMLNSCKVKYTTYDILQDEDVRSELKIYSNWPTYPQLYINAELIGGHDIIKSMYDSGELRDVVPQDCFEG	soluble
MKYKIIVIDVFNTLLNNKYELTEENRNALLYIQKELGIRVVLTSGRTVAALKPLAEELNLREYSGYLIPYHGGQIVNCRSGKVIASHRMATSFVEVLDARARAEGVTLLAFGKDSIFSTDPHDPLAVKESDICGQPLVSKHPRSSEVIKCSFVGEAEKIAELEVVMRRDYGDKLNIFRSSETLLECLPSE	not soluble
MVNVLSNLSNLSNILGKSNKGVGIELAPERMNIVHLCKQRQGLKIESLTTIPVPEGIVVDGQINDPPRMAEIIQQGMAESKIKASRVATCIPGRDAIVRVIPVPAELDNKELREMVLNHEAALYLPYPREEADVDYQKLGYFVDEDGIEKVQVLLVATRKEITDTYINTFAEAGLKVDVLEINSFALIRTIRDQLRLFGPQEAAVLVDIEFDSTEIAIIINGVPQFSRTVPIGTYQLQAALSRAMNLPTSRDMDMLMGMTIPTNSMDVGRTGTTGVNPGMGPMLKILGELSDELRRSIDFYINQSEGLEVAQILLAGTGGGLQQLDEFFTQRLGFPTTQIDPIRDLSLQVEAEKYPPVQRPGLGIILGLAMREG	not soluble
MSLEQASVTNDFSENKQGCIQHPWQGKKVGYIGDSITDPNCYGDNIKKYWDFLKEWLGITPFVYGISGRQWDDVPRQAEKLKKEHGGEVDAILVFMGTNDYNSSVPIGEWFTEQEEQVLSAHGEMKKMVTRKKRTPVMTQDTYRGRINIGITQLKKLFPDKQIVLLTPLHRSLANFGDKNVQPDESYQNGCGEYIDAYVQAIKEAGNIWGIPVIDFNAVTGMNPMVEEQLIYFYDAGYDRLHPDTKGQERMARTLMYQLLALPVAFEGHHHHHH	soluble
MAGILHNEGVKVAITTDHPVTRIQDLLICAGLAAKEGLGIEEGLKAITINPAEICNVANRVGSIEVNKDADIAIFDGNPMETFTKTMYTIINGEIVYSLKDLEHHHHHH	not soluble
MRAWPIHLHVGSIERSSALLVGGCNVVYGLSSHEKSNVGFGEVGSQSWIAQNRVLLFDPDGIDMPVDDRDMHVLQTRQQAPIDTRIAFQGLGVNSMQQNAGVFVGDAQITGWDQHQKSNKASGDIGGDHNVEIAGLHVNYDADGMDGVFLDSDHKAGTFVRQG	not soluble
MCMGGINDNLVRFVYKYKIKMKRERSAMNIEYMNQKVEFSLVRKERKSIKISVNRDFTIEVIAPFNVAEEEIKNVVYKKMKWIIKQMKRMENIIDINEEIKYSDGDAFYIFGTPYRLIVKKGIKNKMRIFGENVYMYIKEKDNYEYKKNYAEKWYKKIAAIELEYLYNEKYKIFDEIYDEKPKLIRKMKSKWGSYSPADNKVVLNTQLVKIPKTCIEYVIIHELCHVKFRNHRKEFYNYVNNFMPDWKLKKESLDRYVNVLEHHHHHH	not soluble
MLSSHLSQICFSCRDPLGNLPADLIRKCTDLMDLNFAEGQRLRTLNKNWKLALPSFRKGAYREERPWLLYRERGSGETRFFDPVRERVHRGNDPRLADARFLGSTLGWLVMSESLDLNPRKTHQTFLYNPFISELQQLPELTLDSPYPTGVLRYGVLTGNPSDNNTYACLITDYLHEIGNRRDTYTLLIYYVAKTSGRWEQNWSVASMLVVGIFDTWYIESISPSPDKISIEIWPKRYDFTFQTQEWNVSNFIPVDPIQWDPFHDQSLYHVKHRLQLPENPSTLAIIIGTSTDRTRVRNKIIGDQSDDDDPRASDHIIDGVWVEVRP	soluble
MSLAKRIKIDNASSKFRRQSQKREQKVIRCSVLIVCEGTKTEPNYFEAFAEKQQGVIVYDIEVKGLGRGTKDVVEKAIDLKNKNNYDRVWAVFDRDEFPAKDFNEAIAMGQKNSIEVAWSNEAFELWYLYHFQNVITGVSRKDYEEKISTAVNASPKYKSKKKYRYAKKDPNNYKIMTTYGSMESALRYAEAKHLEYADSRYANQNPCTTIYQLVRQLLGRDEKLNAELIARIGENEGHHHHHH	soluble
MGSDKIHHHHHHVNVAQPEPGSGPTVRRMLLGSQLRRLREAKGISRADAAYKIRGSESKISRIELGRVGFKTRDVEDLLTFYGVEDEAVRDSFLKLAREANEPGWWQQYGDSLPSWFQSYVGMEEAATQLRVYETQFVPGLLQTEDYARAVVTRGGRKKLDDAARHRIATRMRRQERIRKNHNVKLWVIIDEPAVRRPVGTPEVMRAQLEHLYDLSMAPNITLQIVPFHQGVFAAETGSFTILRYPEYDLPDVVYVEQLTSCLFQEKRADVEQYTMTLEWLAVVAERPDQTRKMLQKMIKELEE	not soluble
DSRGCARWCPQDSSCVNATACRCNPGFSSFSEIITTPMETCDDINECATLSKVSCGKFSDCWNTEGSYDCVCSPGYEPVSGAKTFKNESENTCQDVDECSSGQHQCDSSTVCFNTVGSYSCRCRPGWKPRHGIPNNQKDTVCE	soluble
MKKTGWGILGAVAAFTGYAYWSTKHLTVTDYEILSDKIPAEWDGATFVQLSDLHSASFGLYNNPLLSIVNELAPDAVFLTGDMIDGDESPFVTMAVVRKLAKEFPVFYVSGNHEGRSAFYEDFKADMEKHHVAVLENERYFLRKDGAAIMVAGVKDPRFVRDDWAEKELPKQVWEEEALKEALDEATANLSPDYFTILLAHRPEFWPLYQAYPVDLVLSGHAHGGQFRLPLTEGLFAPGQGFMPKWTAGLHSAGGKSLIVSRGLGNVTKLPRLFNDPEIIRITLKAKGDARENLEHHHHHH	not soluble
MGSDKIHHHHHHMTVDSPILTDTLVVGGGQAGIAMSEHLTGQGVPHIVLERDRIAQRWRTGRWDSLVANGPAWHDRFPGLEFEGLDPDGFASKDAVADYLEAYARKFNAPIRTGVEVVRAERNGGRYGFTVETSAGTYEAQRIVVATGPFQRPVIPAIAPRDPALTQIHSADYRNPGQLPEGAVLVIGAGSSGVQIADELQRAGREVYLSVGPHDRPPRRYRGRDFCWWLGVLGLWDQETVQPGREHVTIAVSGTDGGRTIEFRALAHQGITLVGVTKSFRDGVVAFENDLAENVARGDANHFALLDAADAYIARNGLSLPDEPQARRVPPDPACMTEPILQLDLAAANVTSIIWATGYAAEYGWLNVDAFDANGKPRHQRGVSSEPGVYFLGLPWLSRRGSAFLWGVWHDAKHIAGHIAMQRNYLSYPDFGQSQQ	not soluble
AEGKLNDELAKNKGKIPGLKIDQKIRGQMPERGWTEDDIKNTVSNGATGTSFDKRSPKKTPPDYLGRNDPATVYGSPGKYVVVNDRTGEVTQISDKTDPGWVDDSRIQWGNKNDQ	soluble
MGSDKIHHHHHHMTVEPLHILHLISTSGLFGAERVLLELASQSRSLGMHVTVAALKNSRNPNTELAEAARGAGLPTLVVPCGGRFDAGVVGILTEEIRKSGTQIIHSHNYKSNYYARQAAELSGARWIVTNHGRRAGFKLFLYALLDAMLVRKADRVVAVSPKIADRLAVLGIGRDGLSVIDNGVDFSRFESLPTKADAGNVLGVAGSSYVIGTVGALTEEKGHRHLLQAVKSVRKSIPNVVCVVVGDGPERRRLEQLAREEGIEQTAIFTGKRDDVPSILPRFDLFVLPSLSEGLPMALLEAQAAKVPAIATNVGAIATVINNGVTGVVVSPGDVPALAEAIIRSHDEADKARCMALKGYERVKVHYSADTMAQRYIEIYRGMIGAGGAIG	not soluble
